T1: FcγRIIb (human, UniProt P31994 43-217)
T1 construct: extracellular domain; also called FcgRIIb; 2b
T1 sequence (looked up): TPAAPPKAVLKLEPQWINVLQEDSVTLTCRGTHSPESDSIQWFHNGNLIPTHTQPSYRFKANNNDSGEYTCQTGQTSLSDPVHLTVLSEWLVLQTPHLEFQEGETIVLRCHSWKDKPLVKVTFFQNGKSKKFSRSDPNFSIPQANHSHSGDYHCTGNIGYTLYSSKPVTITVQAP


Key:
[1] = target: T2, FcγRIIIa (human, UniProt P08637 17-208); test: SPR (Biacore), relative binding
T2 construct: extracellular domain; also called FcgRIIIa; 3a

[2] = target: T1, FcγRIIb; test: SPR (Biacore), relative binding

T2 sequence (P08637 17-208): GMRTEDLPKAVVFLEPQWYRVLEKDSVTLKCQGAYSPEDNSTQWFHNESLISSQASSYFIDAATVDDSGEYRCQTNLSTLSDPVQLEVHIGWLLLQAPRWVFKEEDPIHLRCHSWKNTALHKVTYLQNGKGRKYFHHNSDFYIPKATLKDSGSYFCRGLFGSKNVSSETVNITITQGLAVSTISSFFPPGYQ

| He/Con_3a [1] | He/Con_2b [2] | Binder |
| --- | --- | --- |
| 47.8 % of GpH7-A5/GpH7-B3/GpL16-k0 | 199 % of GpH7-A5/GpH7-B3/GpL16-k0 | GpH7-A5/GpH7-B3 variant L328_09D/GpL16-k0 (antibody, human IgG1, kappa, mutation in the GpH7-B3 chain only; also called He Ab) heavy 1: not shown heavy 2: not shown light: DIVMTQSPLSLPVTPGEPASISCQASESLVHSNRNTYLHWYLQKPGQSPQLLIYKVSNRFSGVPDRFSGSGSGTDFTLKISRVEAEDVGVYYCSQNTHVPPTFGQGTKVEIERTVAAPSVFIFPPSDEQLKSGTASVVCLLNNFYPREAKVQWKVDNALQSGNSQESVTEQDSKDSTYSLSSTLTLSKADYEKHKVYACEVTHQGLSSPVTKSFNRGEC |
| 71.7 % of GpH7-A5/GpH7-B3/GpL16-k0 | 149 % of GpH7-A5/GpH7-B3/GpL16-k0 | GpH7-A5/GpH7-B3 variant L328_13S/GpL16-k0 (antibody, human IgG1, kappa, mutation in the GpH7-B3 chain only; also called He Ab) heavy 1: not shown heavy 2: not shown light: DIVMTQSPLSLPVTPGEPASISCQASESLVHSNRNTYLHWYLQKPGQSPQLLIYKVSNRFSGVPDRFSGSGSGTDFTLKISRVEAEDVGVYYCSQNTHVPPTFGQGTKVEIERTVAAPSVFIFPPSDEQLKSGTASVVCLLNNFYPREAKVQWKVDNALQSGNSQESVTEQDSKDSTYSLSSTLTLSKADYEKHKVYACEVTHQGLSSPVTKSFNRGEC |
| 75.3 % of GpH7-A5/GpH7-B3/GpL16-k0 | 141 % of GpH7-A5/GpH7-B3/GpL16-k0 | GpH7-A5/GpH7-B3 variant L328_14T/GpL16-k0 (antibody, human IgG1, kappa, mutation in the GpH7-B3 chain only; also called He Ab) heavy 1: not shown heavy 2: not shown light: DIVMTQSPLSLPVTPGEPASISCQASESLVHSNRNTYLHWYLQKPGQSPQLLIYKVSNRFSGVPDRFSGSGSGTDFTLKISRVEAEDVGVYYCSQNTHVPPTFGQGTKVEIERTVAAPSVFIFPPSDEQLKSGTASVVCLLNNFYPREAKVQWKVDNALQSGNSQESVTEQDSKDSTYSLSSTLTLSKADYEKHKVYACEVTHQGLSSPVTKSFNRGEC |
| 68.3 % of GpH7-A5/GpH7-B3/GpL16-k0 | 193 % of GpH7-A5/GpH7-B3/GpL16-k0 | GpH7-A5/GpH7-B3 variant L328_15Y/GpL16-k0 (antibody, human IgG1, kappa, mutation in the GpH7-B3 chain only; also called He Ab) heavy 1: not shown heavy 2: not shown light: DIVMTQSPLSLPVTPGEPASISCQASESLVHSNRNTYLHWYLQKPGQSPQLLIYKVSNRFSGVPDRFSGSGSGTDFTLKISRVEAEDVGVYYCSQNTHVPPTFGQGTKVEIERTVAAPSVFIFPPSDEQLKSGTASVVCLLNNFYPREAKVQWKVDNALQSGNSQESVTEQDSKDSTYSLSSTLTLSKADYEKHKVYACEVTHQGLSSPVTKSFNRGEC |
| 81.1 % of GpH7-A5/GpH7-B3/GpL16-k0 | 105 % of GpH7-A5/GpH7-B3/GpL16-k0 | GpH7-A5/GpH7-B3 variant L328_19Q/GpL16-k0 (antibody, human IgG1, kappa, mutation in the GpH7-B3 chain only; also called He Ab) heavy 1: not shown heavy 2: not shown light: DIVMTQSPLSLPVTPGEPASISCQASESLVHSNRNTYLHWYLQKPGQSPQLLIYKVSNRFSGVPDRFSGSGSGTDFTLKISRVEAEDVGVYYCSQNTHVPPTFGQGTKVEIERTVAAPSVFIFPPSDEQLKSGTASVVCLLNNFYPREAKVQWKVDNALQSGNSQESVTEQDSKDSTYSLSSTLTLSKADYEKHKVYACEVTHQGLSSPVTKSFNRGEC |
| 53.4 % of GpH7-A5/GpH7-B3/GpL16-k0 | 172 % of GpH7-A5/GpH7-B3/GpL16-k0 | GpH7-A5/GpH7-B3 variant L328_10E/GpL16-k0 (antibody, human IgG1, kappa, mutation in the GpH7-B3 chain only; also called He Ab) heavy 1: not shown heavy 2: not shown light: DIVMTQSPLSLPVTPGEPASISCQASESLVHSNRNTYLHWYLQKPGQSPQLLIYKVSNRFSGVPDRFSGSGSGTDFTLKISRVEAEDVGVYYCSQNTHVPPTFGQGTKVEIERTVAAPSVFIFPPSDEQLKSGTASVVCLLNNFYPREAKVQWKVDNALQSGNSQESVTEQDSKDSTYSLSSTLTLSKADYEKHKVYACEVTHQGLSSPVTKSFNRGEC |
| 37.4 % of GpH7-A5/GpH7-B3/GpL16-k0 | 235 % of GpH7-A5/GpH7-B3/GpL16-k0 | GpH7-A5/GpH7-B3 variant L328_20W/GpL16-k0 (antibody, human IgG1, kappa, mutation in the GpH7-B3 chain only; also called He Ab) heavy 1: not shown heavy 2: not shown light: DIVMTQSPLSLPVTPGEPASISCQASESLVHSNRNTYLHWYLQKPGQSPQLLIYKVSNRFSGVPDRFSGSGSGTDFTLKISRVEAEDVGVYYCSQNTHVPPTFGQGTKVEIERTVAAPSVFIFPPSDEQLKSGTASVVCLLNNFYPREAKVQWKVDNALQSGNSQESVTEQDSKDSTYSLSSTLTLSKADYEKHKVYACEVTHQGLSSPVTKSFNRGEC |
| 30.3 % of GpH7-A5/GpH7-B3/GpL16-k0 | 111 % of GpH7-A5/GpH7-B3/GpL16-k0 | GpH7-A5/GpH7-B3 variant N325_03V/GpL16-k0 (antibody, human IgG1, kappa, mutation in the GpH7-B3 chain only; also called He Ab) heavy 1: not shown heavy 2: not shown light: DIVMTQSPLSLPVTPGEPASISCQASESLVHSNRNTYLHWYLQKPGQSPQLLIYKVSNRFSGVPDRFSGSGSGTDFTLKISRVEAEDVGVYYCSQNTHVPPTFGQGTKVEIERTVAAPSVFIFPPSDEQLKSGTASVVCLLNNFYPREAKVQWKVDNALQSGNSQESVTEQDSKDSTYSLSSTLTLSKADYEKHKVYACEVTHQGLSSPVTKSFNRGEC |

Reference: US20150344570A1 (published 2015)
